Paper PMC3155514

Target: T1, HsRAD51(H294V) H294V (Homo sapiens) (UniProt Q06609)
T1 sequence: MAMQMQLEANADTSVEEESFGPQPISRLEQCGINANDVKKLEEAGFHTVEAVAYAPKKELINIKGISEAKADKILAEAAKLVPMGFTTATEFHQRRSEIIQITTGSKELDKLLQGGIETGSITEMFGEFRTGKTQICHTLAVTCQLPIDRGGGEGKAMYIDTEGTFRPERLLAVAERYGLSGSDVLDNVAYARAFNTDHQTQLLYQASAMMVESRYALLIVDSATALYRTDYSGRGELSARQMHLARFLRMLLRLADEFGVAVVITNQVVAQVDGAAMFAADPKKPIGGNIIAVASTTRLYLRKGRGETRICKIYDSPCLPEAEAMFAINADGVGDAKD
Test: SPR
Conditions: SPR (Biacore 3000): 20 mM HEPES pH 7.5, 10% glycerol, 1 mM DTT, 1 mM MgCl2, 0.005% P-20, 2.5 mM indicated nucleotide, 150 mM KCl when indicated (text: salt …)

TCGAGAGGGTAAACCACAATTATTGATATAAAATAGTTTTGGGTAGGCGA (double strand) [50 bp dsDNA]
Kd: 472 nM
